Where two headings read alike, the source gives them in different places.
T1: human SLC34A2 (human, UniProt O95436 1-690)
T1 construct: whole, on cells; also called human solute carrier 34 A2; NaPi2b
T1 sequence (looked up): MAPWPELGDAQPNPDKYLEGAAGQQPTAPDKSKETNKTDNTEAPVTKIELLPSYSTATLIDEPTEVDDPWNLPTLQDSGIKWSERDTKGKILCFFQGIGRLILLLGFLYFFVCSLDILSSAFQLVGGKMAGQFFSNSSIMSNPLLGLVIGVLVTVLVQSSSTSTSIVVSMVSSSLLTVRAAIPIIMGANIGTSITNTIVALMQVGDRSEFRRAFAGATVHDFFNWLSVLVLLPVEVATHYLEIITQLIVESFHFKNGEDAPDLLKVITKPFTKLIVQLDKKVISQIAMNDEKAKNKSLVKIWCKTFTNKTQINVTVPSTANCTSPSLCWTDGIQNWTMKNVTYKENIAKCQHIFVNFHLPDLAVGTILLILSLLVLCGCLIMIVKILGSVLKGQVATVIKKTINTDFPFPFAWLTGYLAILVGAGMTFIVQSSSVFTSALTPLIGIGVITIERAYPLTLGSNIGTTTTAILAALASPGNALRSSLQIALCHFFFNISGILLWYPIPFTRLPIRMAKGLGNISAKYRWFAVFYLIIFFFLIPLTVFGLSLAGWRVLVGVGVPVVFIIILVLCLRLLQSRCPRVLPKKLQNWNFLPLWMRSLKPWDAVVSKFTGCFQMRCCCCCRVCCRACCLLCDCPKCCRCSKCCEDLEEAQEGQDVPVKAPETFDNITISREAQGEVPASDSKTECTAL

T2: Rhesus SLC34A2 (Rhesus, UniProt F7HDA3 1-690)
T2 construct: whole, on cells
T2 sequence: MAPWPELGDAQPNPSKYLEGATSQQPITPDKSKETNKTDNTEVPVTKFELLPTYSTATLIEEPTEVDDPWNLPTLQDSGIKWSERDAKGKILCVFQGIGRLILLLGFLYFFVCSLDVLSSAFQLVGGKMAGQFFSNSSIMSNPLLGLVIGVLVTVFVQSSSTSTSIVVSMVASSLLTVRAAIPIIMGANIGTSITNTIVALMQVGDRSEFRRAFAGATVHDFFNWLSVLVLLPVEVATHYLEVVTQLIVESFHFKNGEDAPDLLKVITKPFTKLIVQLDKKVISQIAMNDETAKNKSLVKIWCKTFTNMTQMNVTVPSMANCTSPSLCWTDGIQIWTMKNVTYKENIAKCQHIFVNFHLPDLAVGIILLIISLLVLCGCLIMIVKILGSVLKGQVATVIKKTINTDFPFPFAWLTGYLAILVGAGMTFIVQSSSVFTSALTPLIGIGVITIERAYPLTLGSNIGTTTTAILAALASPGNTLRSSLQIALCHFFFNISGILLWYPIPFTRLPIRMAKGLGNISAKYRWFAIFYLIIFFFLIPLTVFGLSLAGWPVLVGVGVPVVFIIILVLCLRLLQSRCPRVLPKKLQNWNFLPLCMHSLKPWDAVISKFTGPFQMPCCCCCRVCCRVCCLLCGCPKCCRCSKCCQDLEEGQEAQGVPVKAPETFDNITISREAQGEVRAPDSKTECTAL


What was measured:
human SLC34A2 [1] = molecular target: T1, human SLC34A2; experiment: FACS, RMG-1 cells
In short: (§1)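 Each cell line was labeled with humanized antibody (4° C., 60 min), then with a fluorescent conjugated secondary (4° C., 30 min), with double washes after each step; fluorescence was read by flow cytometry.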

human SLC34A2 [2] = molecular target: T1, human SLC34A2; experiment: FACS, OVCAR3 cells
In short: as §1

Rhesus SLC34A2 [3] = molecular target: T2, Rhesus SLC34A2; experiment: FACS, HEK293/Rhesus SLC34A2 cells
human SLC34A2 [4] = molecular target: T1, human SLC34A2; experiment: FACS, HEK293/human SLC34A2 cells
In short: as §1

human SLC34A2 [5] = molecular target: T1, human SLC34A2; experiment: FACS, HEK293/human SLC34A2 cells; remark: listed apart in the source
Description: Briefly, OVCAR3 cells or HEK293 cells expressing human SLC34A2 were incubated with chimeric antibodies (from 200 nM, 4 folds dilution, 8 points). After incubation at 4° C. for 60 minutes, the cells were washed with FACS buffer twice, then stained with fluorescent conjugated secondary antibody at 4° C. for 30 minutes. After that the cells were washed twice and analyzed by flow cytometry.

Rhesus SLC34A2 [6] = molecular target: T2, Rhesus SLC34A2; experiment: FACS, HEK293/Rhesus SLC34A2 cells; remark: listed apart in the source
human SLC34A2 [7] = molecular target: T1, human SLC34A2; experiment: cell-based or functional assay
human SLC34A2 [8] = molecular target: T1, human SLC34A2; experiment: cell-based or functional assay; remark: listed apart in the source
human SLC34A2 [9] = molecular target: T1, human SLC34A2; experiment: FACS, RMG-1 cells; remark: listed apart in the source

Binder	EC50 (human SLC34A2 [1]) [nM]	Top (human SLC34A2 [1]) [MFI]	EC50 (human SLC34A2 [2]) [nM]	EC50 (Rhesus SLC34A2 [3]) [nM]	Top (MFI) (Rhesus SLC34A2 [3])	EC50 (human SLC34A2 [4]) [nM]	Top (human SLC34A2 [4]) [MFI]	EC50 (human SLC34A2 [5]) [nM]	Top (MFI) (human SLC34A2 [5])	EC50 (Rhesus SLC34A2 [6]) [nM]	Top (MFI) (Rhesus SLC34A2 [6])	ADCC reporter EC50 (human SLC34A2 [7]) [nM]	ADCC reporter Top (MFI) (human SLC34A2 [7])	ADCC reporter EC50 (human SLC34A2 [8]) [nM]	ADCC reporter Top (MFI) (human SLC34A2 [8])	EC50 (human SLC34A2 [9]) [nM]	Top (human SLC34A2 [2]) [MFI]
63A11D5B4.p1.z9 hIgG1 (antibody, V domains shown, humanized hIgG1) VH: QVQLVQSGAEVVKPGASVKMSCKTSGYTFITYNMHWVRQAPGQGLEWIGAIYPGSGDTSYNQKFKGRVTLTADKSTSTAYMELSSLRSEDTAVYYCSISTIITTGAVDYWGQGTLVTVSS VL: DIQMTQSPSSLSASVGDRVTITCKASQDVGTAVAWYQQKPGKVPKLLIYWTSTRHTGVPSRFSGSGSGTDFTLTISSLQPEDVATYYCQQYSRIPLTFGGGTKVEIK	28.3	12200	9.12	1.6	11800	5.49	36800							1.69	116000	28.3	
62G10E4G8.p3.z15 hIgG1 (antibody, V domains shown, humanized hIgG1) VH: QVQLVQSGAEVVKPGASVKMSCKASGYTFPSYITHWVKQAPGQGLEWIGAIYPGNADTSYIQKFKGRATLTADKSTSTAYMELSSLRSEDTAVYYCARGTYGTSAWFTYWGQGTLVTVSS VL: EIVLTQSPATLSVSPGERATLSCRARQNIGNNLYWYQQKPGQSPRLLIKYASQSISGIPSRFSGSGSGTDFTLTISSLQSEDFAVYFCQQSFSWPLTFGQGTKLEIK	3.69	10800	3.76	1.4	14400	2.34	33600							5.39	123000	3.7	
91C9F1.p1.z7 hIgG1 (antibody, V domains shown, humanized hIgG1) VH: QVQLVQSGAEVKKPGSSVKVSCKTSGFFFTEYIIHWVRQAPGQGLEWIGGIIPNNDVTNYKQNFRGRVTLTADKSTSTAYMELSSLRSEDTAVYYCARWRNAYYSAMDSWGQGTTVTVSS VL: DIQVTQSPSSLSTSVGDRVTITCTASQDVGTAVAWYQQKPGKSPKLLIYWASTRHTGVPERFTGSGSGTDFTLTISSVQPEDVATYFCQQYRTSPLTFGVGTKVEIK	2.25	9720	2.41	4.2	9500	1.67	37400							2.12	124000	2.3	20500
xi30H9B8F9 hIgG1 (antibody, V domains shown, chimeric, hIgG1) VH: QVQLQQPGAELVKPGASVKMSCKTSGYTFTTNNMHWVKQTPGQGLEWIGAIYPGNGATAYNQKFKGKATLTADKSSSTAYMQLSSLTSEASAVYYCARGMYGHGAMDYWGQGTSVIVSS VL: DIVMTQSHKFMSRSVGDRVRITCKASQDVGTAVAWYQQKPGQSPKLLIYWATTRHSGVPDRFTGSGSGTDFIFTISNVQSEDLADYFCQQYSSNPLTFGAGTKLELK	1.19	11500	0.74	0.9	17400	1.63	40800	0.96	107000	1.9	47900	3.1	487000	1.26	109000		

Continued, values first:

EC50 (human SLC34A2 [1]) [nM]	Top (human SLC34A2 [1]) [MFI]	EC50 (human SLC34A2 [2]) [nM]	EC50 (Rhesus SLC34A2 [3]) [nM]	Top (MFI) (Rhesus SLC34A2 [3])	EC50 (human SLC34A2 [4]) [nM]	Top (human SLC34A2 [4]) [MFI]	EC50 (human SLC34A2 [5]) [nM]	Top (MFI) (human SLC34A2 [5])	EC50 (Rhesus SLC34A2 [6]) [nM]	Top (MFI) (Rhesus SLC34A2 [6])	ADCC reporter EC50 (human SLC34A2 [7]) [nM]	ADCC reporter Top (MFI) (human SLC34A2 [7])	ADCC reporter EC50 (human SLC34A2 [8]) [nM]	ADCC reporter Top (MFI) (human SLC34A2 [8])	EC50 (human SLC34A2 [9]) [nM]	Top (human SLC34A2 [2]) [MFI]	Binder
14.4	11200	10.5	2.3	15200	5.21	35600	1.5	103000	4.6	45500	4.6	216000					xi63A11D5B4 hIgG1 (antibody, V domains shown, chimeric, hIgG1) VH: QVQLQQPGAELVKPGASVKMSCRTSGYTFITYNMHWVKQTPGQGREWIGAIYPGNGDTSYNQKFKGKATLTADKSSSTAYMQLNSLTSEDSAVYYCSISTIITTGAVDYWGQGTSVTVAS VL: DIVMTQSHKFMSTSVGDRVSITCKASQDVGTAVAWYQQKAGQSPKLLIYWTSTRHTGVPDRFTGSGSGTDFTLIIRSLQSEDLADYFCQQYSRIPLTFGSGTKLEIK
7.97	11300	3.73	1.8	13300	4.26	32700	1.28	101000	3.7	39100	4.8	542000	4.56	101000			xi62G10E4G8 hIgG1 (antibody, V domains shown, chimeric, hIgG1) VH: QVQLQQSGAEVVKPGASVKMSCKASGYTFPSYITHWVKQTPGQGLEWIGAIYPGNGDTSYIQKFKGKATLTADKSSSTAYMQLSSLTSEDSAVYYCARGTYGTSAWFTYWGQGTLVTVSA VL: DIVLTQSPATLSVTPGDSVSLSCRARQNIGNNLYWYQQKSHESPRLLIKYASQSISGIPSRFSGSGSGTDFTLTINSVETEDFGVYFCQQSFSWPLTFGAGTKLELK
1.76	9730	2.5	1.2	11400	1.77	32100	1.06	44800	3.9	15500	2.8	215000	1.96	133000		21000	xi91C9F1 hIgG1 (antibody, V domains shown, chimeric, hIgG1) VH: EVQLQQSGPELVKPGTSVKISCKTSGFFFTEYIIHWVKQSHGRSLEWIGGIIPNNGVTNYKQNFRGKAALTADKSSNTAYMELRSLTSEDSAVYYCARWRNGYYSAMDSWGQGTSVTVSS VL: DIVVTQSHKFMSTSLGDRVSITCTASQDVGTAVAWYQQKPGHSPKLLIYWASTRHTGVPERFTGSGSGTDFTLTITNVQSEDLADYFCQQYRTSPLTFGVGTKLELK

— patent US20240301052A1 (LANOVA MEDICINES DEVELOPMENT, published 2024)
